# Experimental data: the supplement of paper PMC9732359
# ± gives the uncertainty stated by the source.
# Assay: protein stability index of a GFP-peptide fusion (yeast GPS) (PSI 1-4); higher = more stable; sorted into four equal gates, so the index is relative within each strain
# How it was run: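 Tiled 17-residue peptides from yeast proteins were fused downstream of GFP on a plasmid that also expresses Cherry, and the pooled library was carried in yeast. Mid-log cultures grown in leucine-free medium were sorted into four equal gates by GFP/Cherry fluorescence ratio. Plasmids from each gate were PCR-amplified and Illumina-sequenced, and reads were assigned to strains by barcodes. Each peptide's protein stability index is the sum, over gates, of the gate's read frequency multiplied by its gate number.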
Sequence,protein stability index (doa10∆),protein stability index (pdr5∆),protein stability index (san1∆),protein stability index (ubr1∆)
TITIKSYHLWPSFTDEQ [PRP8],2.32 ± 0.057,2.81 ± 0.061,2.41 ± 0.073,2.51 ± 0.047
DRVVSSDSLDIAQGIDL [SRP72],2.85 ± 0.069,2.6 ± 0.062,2.27 ± 0.079,3 ± 0.079
QQNPKFLQSQRQQQQRS [SWI1],2.47 ± 0.06,1.94 ± 0.063,2.67 ± 0.057,2.05 ± 0.067
GAAANNNDQKRQQAYKT [YJL041W/NSP1],3.06 ± 0.063,3.02 ± 0.056,3.09 ± 0.042,3.22 ± 0.066
SQPSKKSFANHTEDEQI [SIR4],2.81 ± 0.059,2.84 ± 0.052,3.08 ± 0.059,2.83 ± 0.052
GDNTSDVDMEDRNLTEF [RRI1],–,3.08 ± 0.13,3.27 ± 0.18,3.19 ± 0.058
MTIPHMKYAVSKTSENK [SIR2],3.14 ± 0.12,3.07 ± 0.16,2.75 ± 0.11,3.06 ± 0.1
GLAVGLALINYGRQELA [RPN2],1.3 ± 0.11,1.21 ± 0.076,1.58 ± 0.24,1.09 ± 0.053
FGATTNDDKKTEPDKPA [YJL041W/NSP1],1.55 ± 0.098,2.48 ± 0.097,2.61 ± 0.15,2.65 ± 0.11
IIMFVGLQGSGKTTSCT [SRP54],2.8 ± 0.067,3.04 ± 0.054,3.13 ± 0.064,3.13 ± 0.046
QRHIAVGKQIVNIPSFM [RPS9A],2.48 ± 0.056,2.74 ± 0.067,2.89 ± 0.082,2.8 ± 0.065
PEELARILQQLKLDKII [RGR1],2.51 ± 0.059,1.49 ± 0.05,3.15 ± 0.076,2.72 ± 0.063
KKSKRLDKVGKKKGGKK [LRP1],3.16 ± 0.15,2.43 ± 0.27,2.99 ± 0.12,3.24 ± 0.21
ISELPPQIRQEIEQLDQ [YGL172W/NUP49],2.98 ± 0.084,3.06 ± 0.061,2.65 ± 0.088,3.06 ± 0.049
IEYCSAQPSVQSSFAGT [FAS2],2.72 ± 0.11,3.07 ± 0.094,2.77 ± 0.073,2.56 ± 0.059
EHGMNAPSVPEFIYLTK [SNF2],3.21 ± 0.092,3.28 ± 0.077,2.91 ± 0.069,3.15 ± 0.059
PQDILSKLYLLLARVFE [SNF11],2.14 ± 0.044,2.37 ± 0.052,2.2 ± 0.069,2.4 ± 0.041
LELVNTPLTENILIASL [YCG1],1.66 ± 0.052,1.62 ± 0.042,1.93 ± 0.083,2.27 ± 0.037
EFCDEPSVGVKTMKTFV [RPB5],3.15 ± 0.12,3.56 ± 0.27,–,–
KFNAAPEENATEGPSDK [SNF12],3.1 ± 0.16,3.58 ± 0.14,3.26 ± 0.081,3.26 ± 0.098
LDDQIFVCEKSIEFAKR [RPN6],–,–,–,1.27 ± 0.16
ESSINTHPHAADGSSYM [SKI6],2.98 ± 0.047,3.22 ± 0.039,3 ± 0.035,3.05 ± 0.036
KISEGSAKPTFSFSKSE [YOR098C/NUP1],1.75 ± 0.11,1.92 ± 0.17,2.11 ± 0.2,1.77 ± 0.11
SKNSKLSIICVGGHNVT [SIR3],1.71 ± 0.069,1.57 ± 0.039,1.39 ± 0.081,1.52 ± 0.041
KIPAVEYFGGESPVDVQ [FAS1],2.97 ± 0.13,3.4 ± 0.099,3.19 ± 0.1,3.09 ± 0.092
NLYDDVKCWSKFIEKFQ [MED1],–,3.07 ± 0.11,3.27 ± 0.14,3.58 ± 0.29
WIAMRREKRDRTHFKRM [PRP8],1.99 ± 0.079,2.54 ± 0.078,2.04 ± 0.2,1.93 ± 0.065

Sequence,protein stability index (doa10∆),protein stability index (pdr5∆),protein stability index (san1∆),protein stability index (ubr1∆)
EYGKHDFKNEESLSEEH [MED8],3.3 ± 0.1,3 ± 0.081,3.1 ± 0.053,3.34 ± 0.054
ELPKFILSDSPLELSAP [DIS3],2.5 ± 0.095,3.37 ± 0.17,2.85 ± 0.19,3.04 ± 0.092
KERSIVVGRTTRSNPPF [REC8],2.7 ± 0.055,2.7 ± 0.057,2.57 ± 0.081,2.65 ± 0.065
EEQLDALECRLASAIAS [CSN12],–,2.02 ± 0.15,2.38 ± 0.12,1.81 ± 0.088
ALTQMDQDKVNFASGDN [RPB3],3.33 ± 0.14,3.5 ± 0.13,3.08 ± 0.15,3.65 ± 0.28
VIVELLPQSEWKAPSSI [DIS3],2.79 ± 0.071,2.57 ± 0.062,2.02 ± 0.062,2.1 ± 0.048
YLAKLSKQLSLEEKKKR [IRR1],2.65 ± 0.098,2.75 ± 0.085,2.44 ± 0.11,2.86 ± 0.085
YESQTFSSKNEWRKSAI [PRP8],3.23 ± 0.076,3.28 ± 0.063,3.29 ± 0.06,3.01 ± 0.059
DLVIVDENELKKSEEKL [MTW1],3.51 ± 0.19,–,–,–
IKDSVREVGTKFTTVLA [ECM29],2.77 ± 0.084,2.6 ± 0.07,2.22 ± 0.078,2.42 ± 0.05
LFGMCESLYEPNLEPED [PUP3],2.77 ± 0.19,3.53 ± 0.2,3.32 ± 0.081,3.27 ± 0.1
LLQVNKTFCEDPFSDVD [GRR1],3.13 ± 0.072,3.35 ± 0.051,3.32 ± 0.035,3.28 ± 0.036
CNALIHIKFSAGTEANA [SRB4],1.96 ± 0.05,2.31 ± 0.039,2.19 ± 0.054,2.33 ± 0.034
HSKFRSSSGNTWSLILN [YML031W/NDC1],2.75 ± 0.1,2.72 ± 0.099,3.15 ± 0.078,3.12 ± 0.077
TKVNNQLIKVAVHNGGR [RPL9A],1.92 ± 0.074,1.52 ± 0.06,1.78 ± 0.086,2.4 ± 0.029
ARGLTATGKKSRGINKG [RPL15A],3.57 ± 0.19,3.37 ± 0.15,3.3 ± 0.071,3.16 ± 0.068
PDGVVVHRDDPALVGKL [SNF6],3.3 ± 0.071,3.49 ± 0.071,3.36 ± 0.054,3.33 ± 0.053
NWSKEDLQKLLKGIQEF [SWI3],3.27 ± 0.068,3.07 ± 0.057,3.09 ± 0.05,3.33 ± 0.055
QAIKEASYVNIPVIALT [RPS0A],2.07 ± 0.068,2 ± 0.061,2.15 ± 0.12,1.78 ± 0.057
RSLLLSRVRADDLSTRF [RRP43],2.89 ± 0.21,3.63 ± 0.17,–,2.92 ± 0.16
HPFVFEEVEDQINPTRE [SNF2],3.36 ± 0.077,3.5 ± 0.13,2.94 ± 0.17,3.13 ± 0.086
SRKAHGLNAKQLYKARM [POP1],3.03 ± 0.094,3.4 ± 0.12,2.96 ± 0.05,2.83 ± 0.034
IKKVICGAWEPAITIEK [SIR3],2.15 ± 0.094,2.45 ± 0.087,2.47 ± 0.1,2.58 ± 0.084
AEEKREAVIDEKLEVIA [ITC1],3.04 ± 0.15,2.62 ± 0.16,3.03 ± 0.14,3.13 ± 0.082
ENVILGQMAPIGTGAFD [RPO21],2.33 ± 0.11,2.37 ± 0.13,2.36 ± 0.12,2.54 ± 0.056
KYKPTPLYVMDEIDAAL [SMC4],2.45 ± 0.085,3.06 ± 0.11,3 ± 0.07,2.81 ± 0.057
AASKVKLEEESKRGNDK [RPC53],3.27 ± 0.089,3.41 ± 0.098,3.38 ± 0.071,3.25 ± 0.064
